Assays:
RbAp46 [1] = target: T1, RbAp46 (Homo sapiens, UniProt Q16576); test: Reciprocal pull-down of 35S-labeled RbAp46 with GST-histone H4 (1–48) mutants; type: binding; details: autoradiogram, 300 mM NaCl, 20 mM Tris pH 8.0, 5 mM DTT, 0.1% (v/v) NP-40
T1 construct: His-tag (cleaved yes); made in house; host or cells: insect cells (baculovirus)
Source text: Figure 2 Histone H4 Recognition by the RbAp46-Binding Pocket (A) Electrostatic surface potential of RbAp46 contoured and color coded at −91 kT (red) and +91 kT (blue). […] The histone H4 peptide is shown as a stick model. The histone H4-binding pocket in RbAp46 is mainly formed by the negatively charged PP loop (which terminates in Pro-362 and Pro-363) and a hydrophobic surface on the N-terminal α helix (helix 1). The interaction of histone H4 residues (Gln-27, Lys-31, Ile-34, Arg-35, Arg-36, Leu-37, Arg-39, and Arg-40) is shown. (B) Detailed view showing the interactions of the hydrophobic Ile-34 and Leu-37 histone H4 residues with Phe-29 and Leu-30 in helix 1 of RbAp46, as well as the positively charged Arg-36, Arg-39, and Arg-40 histone H4 residues with the backbone carbonyl groups in the PP loop and a cluster of acidic residues (Glu-356, Asp-357, and Asp-360) in RbAp46. […] In each experiment, the input lane contains 30% of the ^35S-labeled RbAp46 protein used in each of the pull-down assays. The experiments were carried out in 300 mM NaCl, 20 mM Tris (pH 8.0), 5 mM DTT, and 0.1% (v/v) NP-40.
Recombinant histone H4 and RbAp46 proteins were expressed and purified as described previously ([Verreault et al., 1998; Berger et al., 2004]). Detailed procedures for the generation of the RbAp46/histone H4 peptide and recombinant histone H4 complexes can be found in the Supplemental Data. Recombinant full-length (Xenopus lavis) histones H3 and H4 were expressed, purified, and refolded as described ([Luger et al., 1997]). For the binding experiments, histones H3/H4 and lysozyme (Sigma) were crosslinked to DynaBeads (Dynal Biotech) according to the manufacturer's recommendations. RbAp46 and histone H4 mutants were generated by using the QuikChange Site-Directed Mutagenesis kit (Stratagene). The RbAp46 mutants were expressed by using a Rabbit Reticulocyte Cell Free system (Promega).

RbAp46 [2] = target: T1, RbAp46; test: BS3 chemical crosslinking with RbAp46; type: binding; details: BS3 crosslinker; 1.1 M NaCl, 20 mM HEPES pH 7.5, 10 mM DTT; ∼10 μM protein; room temperature 30 min; NuPAGE, Coomassie and anti-H3/anti-H4 immunoblot
Source text: Figure 4 Interaction of Histones H3 and H4 with RbAp46 (A) Comparison of chemical crosslinking of histones H3 and H4 in the absence and presence of RbAp46. Three different 4%–12% NuPAGE gels were either (i) stained with Coomasie blue or blotted with (ii) anti-histone H4 or (iii) anti-histone H3 antibodies. By themselves, histones H3 and H4 appear to form a H3/H4 heterodimer (∼25 kDa), an H3_2 homodimer (∼30 kDa), and an H3_2/H4_2 heterotetramer (∼50 kDa), indicated by arrowheads. In the presence of RbAp46, two bands, which both contain histones H3 and H4 (also indicated by arrowheads), can be seen in positions roughly corresponding to the interaction of RbAp46 with histone H3/H4 dimers and tetramers (∼65–75 kDa). […] The fractions were collected and analyzed on 4%–12% NuPAGE gels.
RbAp46/H3/H4 crosslinking was performed by using the BS^3 crosslinker (Pierce) in 1.1 M NaCl, 20 mM HEPES (pH 7.5), and 10 mM DTT. Freshly prepared BS^3 stock solution, 3% (w/v), was diluted 1/5, 1/10, 1/20, 1/50, and 1/100 with distilled water, and 1 μl of the resulting solution was mixed with 10 μl of ∼10 μM RbAp46, recombinant histone H3/H4, or RbAp46/H3/H4 prior to incubation at room temperature for 30 min. […] The proteins were analyzed on separate 4%–12% NuPAGE gels, one for Coomassie blue staining and one for each Western blot with either anti-histone H3 (Abcam) or anti-histone H4 (A.V.) antibodies.

RbAp46 or RbAp48 = details: ref Verreault et al., 1998; cited from earlier work

T1 sequence (Q16576 whole entry): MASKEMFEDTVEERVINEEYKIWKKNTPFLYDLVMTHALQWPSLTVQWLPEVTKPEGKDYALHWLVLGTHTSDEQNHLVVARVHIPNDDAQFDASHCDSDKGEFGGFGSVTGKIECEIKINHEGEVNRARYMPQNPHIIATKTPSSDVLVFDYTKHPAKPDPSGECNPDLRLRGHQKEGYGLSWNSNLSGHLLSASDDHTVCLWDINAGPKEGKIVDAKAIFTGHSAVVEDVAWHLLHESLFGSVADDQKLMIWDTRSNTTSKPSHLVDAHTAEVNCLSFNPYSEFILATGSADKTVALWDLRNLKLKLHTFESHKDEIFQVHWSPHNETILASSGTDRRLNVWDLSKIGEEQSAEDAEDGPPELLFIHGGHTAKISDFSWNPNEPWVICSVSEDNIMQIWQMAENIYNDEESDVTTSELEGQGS

I34T + L37D + R35S: GST-histone H4 (1–48) mutated in residues interacting with both helix 1 and the charged PP loop
Effect of histone H4 mutation on binding to RbAp46 (RbAp46 [1]): disrupt the binding

L37D + R39V + R40N: GST-histone H4 (1–48) mutated in residues interacting with both helix 1 and the charged PP loop
Effect of histone H4 mutation on binding to RbAp46 (RbAp46 [1]): disrupt the binding

R39V + R40N: GST-histone H4 (1–48) mutated in residues interacting with the charged PP loop
Effect of histone H4 mutation on binding to RbAp46 (RbAp46 [1]): disrupt the binding

lysozyme: positively charged lysozyme protein (Sigma), negative control
Crosslinked species with RbAp46 (RbAp46 [2]): no crosslinked species

residues 15–41 of histone H4: residues 15–41 of histone H4, sufficient for recognition by RbAp46 or RbAp48 (earlier studies)
Recognition by RbAp46 or RbAp48 (RbAp46 or RbAp48): sufficient for recognition by either RbAp46 or RbAp48

From publication PMC2572730, “Structural Basis for the Recognition of Histone H4 by the Histone-Chaperone RbAp46” (Structure(London, England:1993), 2008)
